These results are taken from the RNAGym collection of RNA variant scans (doi:10.7554/elife.80360).

The chains are these.
B1: Twister Ribozyme (parent)
chain: AACACUGCCAAUGCCGGUCCCAAGCCCGGAUAAAAGUGGAGGGGGCGG

Variants of B1 are the subject of the series. As to the kind of experiment: self-cleavage, relative activity (ratio to wild type); higher = more cleavage; co-transcriptional.
Regarding AACACUGCCAAUGCCGGUUCCAAGCCCGGAUGAAAGUGGAGGGGGCGG [C19U A32G], the self-cleavage amounted to 0.855. For AACACUGCCAAUGCCGGUUCCAAGCCCGGAUCAAAGUGGAGGGGGCGG [C19U A32C] the value was 1.05. To AACACUGCCAAUGCCGGUCGCAAGCCCGGAUAAAAUUGGAGGGGGCGG [C20G G36U] belongs 0.0382; to AACACUGCCAAUGCCGGUCGCAAGCCCGGAUAAAACUGGAGGGGGCGG [C20G G36C], 0.168; to AACACUGCCAAUGCCGGUCGCAAGCCCGCAUAAAAGUGGAGGGGGCGG [C20G G29C], 0.0469. To AACACUGCCAAUGCCGGUCGCAAGCCCGGAUAAAAGUGGAGGGGGUGG [C20G C46U] belongs 0.119; to AACACUGCCAAUGCCGGUCGCAAGCCCGGAUAAAAGUGGAGGGGGAGG [C20G C46A], 0.12. As to AACACUGCCAAUGCCGGUCGCCAGCCCGGAUAAAAGUGGAGGGGGCGG [C20G A22C], the self-cleavage is 0.147. To AACACUGCCAAUGCCGGUCGCUAGCCCGGAUAAAAGUGGAGGGGGCGG [C20G A22U] belongs 0.122; to AACACUGCCAAUGCCGGUCACAAGCCCGGAUAAAAGUGGAGGGGGCGU [C20A G48U], 0.142; to AACACUGCCAAUGCCGGUCACAAGCCCGGAUAAAAGUGGAGGGGGCGA [C20A G48A], 0.104.

With AACACUGCCAAUGCCGGUCACAAGCCCGGAUAAUAGUGGAGGGGGCGG [C20A A34U], the self-cleavage was 0.0698. Regarding AACACUGCCAAUGCCGGUCACAAGCCCGGAUAAGAGUGGAGGGGGCGG [C20A A34G], the self-cleavage stood at 0.104. AACACUGCCAAUGCCGGUCACAAGCCCGGAUAAAAGUGAAGGGGGCGG [C20A G39A]: the self-cleavage is 0.114. To AACACUGCCAAUGCCGGUCACAAGCCCGGAUAAAAGUGGAGGGGCCGG [C20A G45C] belongs 0.161; to AACACUGCCAAUGCCGGUUCUAAGCCCGGAUAAAAGUGGAGGGGGCGG [C19U C21U], 0.0767; to AACACUGCCAAUGCCGGUCGCAAGCCUGGAUAAAAGUGGAGGGGGCGG [C20G C27U], 0.0791.

On to AACACUGCCAAUGCCGGUCGCAAGCCAGGAUAAAAGUGGAGGGGGCGG [C20G C27A], for which the self-cleavage turned out to be 0.102. For AACACUGCCAAUGCCGGUCGCAAGCCGGGAUAAAAGUGGAGGGGGCGG [C20G C27G], the self-cleavage turned out to be 0.0793. For AACACUGCCAAUGCCGGUCACCAGCCCGGAUAAAAGUGGAGGGGGCGG [C20A A22C] the value was 0.126; for AACACUGCCAAUGCCGGUCACAAGCCCGAAUAAAAGUGGAGGGGGCGG [C20A G29A], 0.138; for AACACUGCCAAUGCCGGUCGCACGCCCGGAUAAAAGUGGAGGGGGCGG [C20G A23C], 0.118. For AACACUGCCAAUGCCGGUCGCAUGCCCGGAUAAAAGUGGAGGGGGCGG [C20G A23U] the value was 0.121; for AACACUGCCAAUGCCGGUUCCAAGCCCAGAUAAAAGUGGAGGGGGCGG [C19U G28A], 0.758; for AACACUGCCAAUGCCGGUUCCAAGCCCUGAUAAAAGUGGAGGGGGCGG [C19U G28U], 0.822.

On to AACACUGCCAAUGCCGGUUCCAACCCCGGAUAAAAGUGGAGGGGGCGG [C19U G24C], for which the self-cleavage was 0.126. Regarding AACACUGCCAAUGCCGGUUCCAAGCCCGGAUAAAAGUGGAGGGGGCGC [C19U G48C], the self-cleavage was 1.04. Turning to AACACUGCCAAUGCCGGUUCCAAGCCCGGAUAAAAGUGGAGGGGGCGU [C19U G48U], the self-cleavage is 0.91. To AACACUGCCAAUGCCGGUUCCAAGCCCGGAUACAAGUGGAGGGGGCGG [C19U A33C] belongs 0.795; to AACACUGCCAAUGCCGGUUCCAAGCCCGGAUAUAAGUGGAGGGGGCGG [C19U A33U], 0.86. For AACACUGCCAAUGCCGGUCGCAAGCCCGGAUAAAAGUGGAUGGGGCGG [C20G G41U] the value was 0.0931; for AACACUGCCAAUGCCGGUCACAAGCGCGGAUAAAAGUGGAGGGGGCGG [C20A C26G], 0.105. To AACACUGCCAAUGCCGGUCACAAGCCCGGGUAAAAGUGGAGGGGGCGG [C20A A30G] belongs 0.114. For AACACUGCCAAUGCCGGUCACAGGCCCGGAUAAAAGUGGAGGGGGCGG [C20A A23G], the self-cleavage was found to be 0.0659. Take AACACUGCCAAUGCCGGUCACAUGCCCGGAUAAAAGUGGAGGGGGCGG [C20A A23U]: the self-cleavage is 0.0802. For AACACUGCCAAUGCCGGUCGCAAGCCCGGAUAAAUGUGGAGGGGGCGG [C20G A35U] the value was 0.182; for AACACUGCCAAUGCCGGUCGCAAGCCCGGAUAAAGGUGGAGGGGGCGG [C20G A35G], 0.094.

Regarding AACACUGCCAAUGCCGGUCGUAAGCCCGGAUAAAAGUGGAGGGGGCGG [C20G C21U], the self-cleavage worked out at 0.115. To AACACUGCCAAUGCCGGUUCCAAGCCCGGAUAAGAGUGGAGGGGGCGG [C19U A34G] belongs 0.601. For AACACUGCCAAUGCCGGUUCCAAGCCCGGAUAACAGUGGAGGGGGCGG [C19U A34C] the value was 0.083; for AACACUGCCAAUGCCGGUUCCAAGCCCGGAUAAAAGUGGAGGCGGCGG [C19U G43C], 0.286. For AACACUGCCAAUGCCGGUCGCAAGCCCGGAUAAAAGUAGAGGGGGCGG [C20G G38A] the value was 0.0626; for AACACUGCCAAUGCCGGUCGCAAGCCCGGAUAAAAGUUGAGGGGGCGG [C20G G38U], 0.0717; for AACACUGCCAAUGCCGGUCGCAAGCCCGGAUAAAAGUCGAGGGGGCGG [C20G G38C], 0.108. Take AACACUGCCAAUGCCGGUCACAAGCCCGGAUAAAAGUGGAGCGGGCGG [C20A G42C]: the self-cleavage amounted to 0.78. For AACACUGCCAAUGCCGGUUGCAAGCCCGGAUAAAAGUGGAGGGGGCGG [C19U C20G], the self-cleavage stood at 0.0718. To AACACUGCCAAUGCCGGUUACAAGCCCGGAUAAAAGUGGAGGGGGCGG [C19U C20A] belongs 0.107. To AACACUGCCAAUGCCGGUUUCAAGCCCGGAUAAAAGUGGAGGGGGCGG [C19U C20U] belongs 0.327; to AACACUGCCAAUGCCGGUCACAAGCCCGGAUAAAAGUAGAGGGGGCGG [C20A G38A], 0.0955; to AACACUGCCAAUGCCGGUCGCAAGGCCGGAUAAAAGUGGAGGGGGCGG [C20G C25G], 0.0818. Take AACACUGCCAAUGCCGGUUCCAAGCCCGCAUAAAAGUGGAGGGGGCGG [C19U G29C]: the self-cleavage was 0.438.

Turning to AACACUGCCAAUGCCGGUUCCAAGCCCGUAUAAAAGUGGAGGGGGCGG [C19U G29U], the self-cleavage stood at 0.836. To AACACUGCCAAUGCCGGUUCCAAGCCCGGAUAAAAGUGGAGGGGGCUG [C19U G47U] belongs 0.39; to AACACUGCCAAUGCCGGUUCCAAGCCCGGAUAAAAGUGGAGGGGGCAG [C19U G47A], 0.763.
